Molecular target: DNA-dependent protein kinase catalytic subunit (human (endogenous in HCT-116), UniProt P78527 1-4128)
Assay: cell-based or functional assay

Chain of DNA-dependent protein kinase catalytic subunit (P78527 whole entry): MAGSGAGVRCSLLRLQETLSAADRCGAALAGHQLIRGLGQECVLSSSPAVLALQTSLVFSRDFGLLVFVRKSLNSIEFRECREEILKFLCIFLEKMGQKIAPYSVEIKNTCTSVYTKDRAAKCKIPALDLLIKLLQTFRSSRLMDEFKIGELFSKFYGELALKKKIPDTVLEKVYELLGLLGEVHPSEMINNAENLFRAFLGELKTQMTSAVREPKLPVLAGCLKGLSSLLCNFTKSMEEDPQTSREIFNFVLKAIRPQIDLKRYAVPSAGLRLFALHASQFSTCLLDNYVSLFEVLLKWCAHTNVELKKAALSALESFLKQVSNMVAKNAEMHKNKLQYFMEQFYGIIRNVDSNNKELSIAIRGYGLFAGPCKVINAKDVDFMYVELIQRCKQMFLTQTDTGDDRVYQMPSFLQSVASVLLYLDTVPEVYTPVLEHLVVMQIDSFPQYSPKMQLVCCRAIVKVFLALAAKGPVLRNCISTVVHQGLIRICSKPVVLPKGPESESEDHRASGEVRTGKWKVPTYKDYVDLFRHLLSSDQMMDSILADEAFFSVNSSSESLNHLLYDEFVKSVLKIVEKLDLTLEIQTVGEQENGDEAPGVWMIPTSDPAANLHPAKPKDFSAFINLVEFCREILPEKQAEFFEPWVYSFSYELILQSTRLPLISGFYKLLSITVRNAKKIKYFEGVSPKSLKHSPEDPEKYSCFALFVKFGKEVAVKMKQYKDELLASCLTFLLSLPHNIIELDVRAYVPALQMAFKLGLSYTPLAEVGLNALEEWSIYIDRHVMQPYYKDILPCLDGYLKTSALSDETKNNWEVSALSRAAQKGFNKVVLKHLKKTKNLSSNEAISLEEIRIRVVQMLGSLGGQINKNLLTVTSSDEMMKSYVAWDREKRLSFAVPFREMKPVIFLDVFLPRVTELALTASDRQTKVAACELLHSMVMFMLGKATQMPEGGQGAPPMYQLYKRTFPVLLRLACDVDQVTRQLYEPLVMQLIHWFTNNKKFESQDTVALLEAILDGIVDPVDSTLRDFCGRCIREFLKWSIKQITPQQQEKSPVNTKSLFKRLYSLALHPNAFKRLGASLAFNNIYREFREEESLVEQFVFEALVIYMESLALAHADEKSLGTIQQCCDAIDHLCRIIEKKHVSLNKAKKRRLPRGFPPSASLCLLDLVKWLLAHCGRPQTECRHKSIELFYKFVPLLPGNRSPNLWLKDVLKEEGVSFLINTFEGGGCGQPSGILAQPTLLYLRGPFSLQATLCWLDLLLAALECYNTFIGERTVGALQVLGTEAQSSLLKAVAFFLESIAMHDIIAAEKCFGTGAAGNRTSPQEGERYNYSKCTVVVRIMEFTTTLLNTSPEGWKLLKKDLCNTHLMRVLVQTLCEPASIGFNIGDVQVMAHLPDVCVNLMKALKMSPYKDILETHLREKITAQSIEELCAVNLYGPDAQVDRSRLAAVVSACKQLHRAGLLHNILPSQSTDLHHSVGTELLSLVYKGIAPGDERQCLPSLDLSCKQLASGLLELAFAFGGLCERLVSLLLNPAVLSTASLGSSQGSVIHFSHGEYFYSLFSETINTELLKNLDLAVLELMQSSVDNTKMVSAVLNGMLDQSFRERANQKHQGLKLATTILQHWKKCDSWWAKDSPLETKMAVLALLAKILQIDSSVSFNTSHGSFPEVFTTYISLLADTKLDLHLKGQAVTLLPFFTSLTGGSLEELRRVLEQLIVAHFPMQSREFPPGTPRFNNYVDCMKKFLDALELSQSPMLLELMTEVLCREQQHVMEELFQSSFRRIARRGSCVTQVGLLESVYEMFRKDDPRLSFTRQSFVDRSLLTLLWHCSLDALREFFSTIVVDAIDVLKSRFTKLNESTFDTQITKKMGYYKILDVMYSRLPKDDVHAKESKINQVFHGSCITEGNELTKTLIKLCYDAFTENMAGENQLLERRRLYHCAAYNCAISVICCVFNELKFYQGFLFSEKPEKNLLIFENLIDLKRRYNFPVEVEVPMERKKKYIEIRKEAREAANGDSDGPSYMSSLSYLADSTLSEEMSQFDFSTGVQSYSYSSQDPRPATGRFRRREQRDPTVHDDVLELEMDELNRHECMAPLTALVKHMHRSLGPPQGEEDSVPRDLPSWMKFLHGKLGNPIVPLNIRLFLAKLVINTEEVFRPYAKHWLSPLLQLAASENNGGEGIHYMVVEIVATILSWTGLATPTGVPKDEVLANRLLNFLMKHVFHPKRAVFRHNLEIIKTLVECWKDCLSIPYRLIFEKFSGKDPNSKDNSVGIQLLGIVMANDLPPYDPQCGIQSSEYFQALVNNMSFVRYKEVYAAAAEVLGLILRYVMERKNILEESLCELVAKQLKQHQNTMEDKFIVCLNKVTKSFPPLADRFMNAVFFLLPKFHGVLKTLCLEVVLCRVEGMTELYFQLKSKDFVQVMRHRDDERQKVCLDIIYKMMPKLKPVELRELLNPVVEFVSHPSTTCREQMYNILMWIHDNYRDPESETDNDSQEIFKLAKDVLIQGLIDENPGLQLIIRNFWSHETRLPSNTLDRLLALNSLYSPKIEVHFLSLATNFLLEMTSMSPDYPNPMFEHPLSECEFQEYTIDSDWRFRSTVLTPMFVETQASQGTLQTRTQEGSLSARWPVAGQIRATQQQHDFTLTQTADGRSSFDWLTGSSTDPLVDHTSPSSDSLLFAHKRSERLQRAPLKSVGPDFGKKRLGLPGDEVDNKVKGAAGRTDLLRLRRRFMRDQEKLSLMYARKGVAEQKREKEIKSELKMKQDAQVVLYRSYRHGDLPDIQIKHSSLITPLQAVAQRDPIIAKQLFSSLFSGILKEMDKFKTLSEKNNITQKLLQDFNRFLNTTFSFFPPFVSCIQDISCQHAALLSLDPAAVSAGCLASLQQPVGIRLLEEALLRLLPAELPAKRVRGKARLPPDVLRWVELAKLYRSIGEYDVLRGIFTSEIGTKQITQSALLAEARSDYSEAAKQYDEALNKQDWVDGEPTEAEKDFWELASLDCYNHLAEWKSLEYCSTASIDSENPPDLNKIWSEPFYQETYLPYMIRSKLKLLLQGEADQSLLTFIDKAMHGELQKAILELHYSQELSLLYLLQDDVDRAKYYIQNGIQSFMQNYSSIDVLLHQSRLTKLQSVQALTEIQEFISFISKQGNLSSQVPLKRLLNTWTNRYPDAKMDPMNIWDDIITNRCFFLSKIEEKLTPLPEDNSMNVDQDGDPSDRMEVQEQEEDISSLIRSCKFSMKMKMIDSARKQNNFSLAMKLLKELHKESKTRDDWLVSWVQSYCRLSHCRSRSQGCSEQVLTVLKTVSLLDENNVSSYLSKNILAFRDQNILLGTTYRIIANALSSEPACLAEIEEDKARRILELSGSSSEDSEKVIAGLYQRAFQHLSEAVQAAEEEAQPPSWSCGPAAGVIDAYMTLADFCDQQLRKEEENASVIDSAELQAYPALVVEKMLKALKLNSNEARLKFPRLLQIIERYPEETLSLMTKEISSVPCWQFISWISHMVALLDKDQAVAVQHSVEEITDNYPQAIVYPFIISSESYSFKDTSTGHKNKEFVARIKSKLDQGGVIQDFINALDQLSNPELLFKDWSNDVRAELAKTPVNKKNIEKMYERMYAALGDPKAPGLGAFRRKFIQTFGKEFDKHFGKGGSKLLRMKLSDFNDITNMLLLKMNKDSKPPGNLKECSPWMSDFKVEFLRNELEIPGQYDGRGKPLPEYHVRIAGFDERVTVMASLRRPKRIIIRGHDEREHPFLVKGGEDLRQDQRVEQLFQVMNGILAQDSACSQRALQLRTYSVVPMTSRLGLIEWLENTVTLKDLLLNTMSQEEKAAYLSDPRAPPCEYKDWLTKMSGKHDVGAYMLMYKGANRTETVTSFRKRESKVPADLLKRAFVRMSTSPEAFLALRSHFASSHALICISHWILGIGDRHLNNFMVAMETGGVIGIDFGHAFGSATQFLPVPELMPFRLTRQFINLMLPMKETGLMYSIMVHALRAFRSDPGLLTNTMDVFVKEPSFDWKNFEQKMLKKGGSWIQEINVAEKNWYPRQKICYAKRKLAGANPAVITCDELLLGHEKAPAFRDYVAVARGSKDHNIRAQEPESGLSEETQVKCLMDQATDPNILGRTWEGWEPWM

DNA-PK kinase activity in 15-LOX-1 expressing whole cell extract lysates: 1.6 fold
B1: 15-lipoxygenase-1 (enzyme, human, UniProt P16050 1-662, looked up)
chain: MGLYRIRVSTGASLYAGSNNQVQLWLVGQHGEAALGKRLWPARGKETELKVEVPEYLGPLLFVKLRKRHLLKDDAWFCNWISVQGPGAGDEVRFPCYRWVEGNGVLSLPEGTGRTVGEDPQGLFQKHREEELEERRKLYRWGNWKDGLILNMAGAKLYDLPVDERFLEDKRVDFEVSLAKGLADLAIKDSLNVLTCWKDLDDFNRIFWCGQSKLAERVRDSWKEDALFGYQFLNGANPVVLRRSAHLPARLVFPPGMEELQAQLEKELEGGTLFEADFSLLDGIKANVILCSQQHLAAPLVMLKLQPDGKLLPMVIQLQLPRTGSPPPPLFLPTDPPMAWLLAKCWVRSSDFQLHELQSHLLRGHLMAEVIVVATMRCLPSIHPIFKLIIPHLRYTLEINVRARTGLVSDMGIFDQIMSTGGGGHVQLLKQAGAFLTYSSFCPPDDLADRGLLGVKSSFYAQDALRLWEIIYRYVEGIVSLHYKTDVAVKDDPELQTWCREITEIGLQGAQDRGFPVSLQARDQVCHFVTMCIFTCTGQHASVHLGQLDWYSWVPNAPCTMRLPPPTTKDATLETVMATLPNFHQASLQMSITWQLGRRQPVMVAVGQHEEEYFSGPEPKAVLKKFREELAALDKEIEIRNAKLDMPYEYLRPSVVENSVAI

From article PMC2613223 (International journal of cancer. Journal international du …, 2008)
